Read-outs that look alike come from different tables or passages of the source. Blank lines part the entries; values can stand above or below the molecule they belong to.
How the values were obtained:
Factor X [1] = target: Factor X (UniProt P00742); assay: cell-based or functional assay
Factor X [2] = target: Factor X (UniProt P00742)
Factor X [3] = target: Factor X (UniProt P00742); assay: cell-based or functional assay; remark: listed apart in the source

Chain of Factor X, P00742 (P00742 whole entry, looked up): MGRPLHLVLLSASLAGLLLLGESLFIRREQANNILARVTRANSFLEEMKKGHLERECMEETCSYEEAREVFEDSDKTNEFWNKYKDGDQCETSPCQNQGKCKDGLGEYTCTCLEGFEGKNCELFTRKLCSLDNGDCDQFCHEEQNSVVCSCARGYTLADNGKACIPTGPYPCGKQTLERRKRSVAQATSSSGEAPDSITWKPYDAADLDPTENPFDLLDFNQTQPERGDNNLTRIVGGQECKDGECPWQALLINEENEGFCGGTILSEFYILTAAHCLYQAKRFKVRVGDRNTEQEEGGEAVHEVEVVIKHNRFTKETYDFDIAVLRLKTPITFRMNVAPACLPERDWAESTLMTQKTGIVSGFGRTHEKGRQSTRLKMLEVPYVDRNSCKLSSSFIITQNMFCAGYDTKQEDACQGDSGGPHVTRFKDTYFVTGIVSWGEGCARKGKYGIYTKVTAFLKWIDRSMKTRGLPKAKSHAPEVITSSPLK

Molecule: FIX-CTP4 (enzyme)
Sample/plasma EC50 ratio (FIX chromogenic activity, BIOPHEN kit) (Factor X [1]): 5.35

Molecule: FIX-CTP-CTP
fold decrease in the enzymatic activity (chromogenic assay) (Factor X [2]): An approximately 15-fold decrease in the enzymatic activity of the FIX-(CTP)2 harvest was observed.
fold decrease in the enzymatic activity versus normal human pulled plasma (chromogenic assay) (Factor X [2]): a 16.5-fold decrease versus normal human pulled plasma
fold decrease in the enzymatic activity vs. recombinant FIX (chromogenic assay) (Factor X [2]): An approximately 7-fold decrease in the enzymatic activity of FIX-CTP-CTP was observed vs. recombinant FIX

Molecule: rhFIX (American Diagnostics) (from UniProt P00740 47-461) (enzyme)
EC50, FIX chromogenic activity (BIOPHEN kit) (Factor X [1]): 0.021 µg/mL
EC50, FIX chromogenic activity (BIOPHEN kit) (Factor X [3]): 0.0687 µg/mL

B1: rFVII-CTP (protein)
chain: AVFVTQEEAHGVLHRRRRANAFLEELRPGSLERECKEEQCSFEEAREIFKDAERTKLFWISYSDGDQCASSPCQNGGSCKDQLQSYICFCLPAFEGRNCETHKDDQLICVNENGGCEQYCSDHTGTKRSCRCHEGYSLLADGVSCTPTVEYPCGKIPILEKRNASKPQGRIVGGKVCPKGECPWQVLLLVNGAQLCGGTLINTIWVVSAAHCFDKIKNWRNLIAVLGEHDLSEHDGDEQSRRVAQVIIPSTYVPGTTNHDIALLRLHQPVVLTDHVVPLCLPERTFSERTLAFVRFSLVSGWGQLLDRGATALELMVLNVPRLMTQDCLQQSRKVGDSPNITEYMFCAGYSDGSKDSCKGDSGGPHATHYRGTWYLTGIVSWGQGCATVGHFGVYTRVSQYIEWLQKLMRSEPRPGVLLRAPFPSSSSKAPPPSLPSPSRLPGPSDTPILPQ
FVII chromogenic activity (AssaySense Human FVII Chromogenic Activity Assay Kit) (Factor X, P00742): The addition of the CTP peptide at the C-terminal of the rFVII protein did not impair the FVII serine protease activity

The remaining lines, values ahead:

Sample/plasma EC50 ratio (FIX chromogenic activity, BIOPHEN kit) (Factor X [1]): 2
Molecule: FIX-CTP3 (enzyme)

Sample/plasma EC50 ratio (FIX chromogenic activity, BIOPHEN kit) (Factor X [1]): 2.73
Molecule: FIX-CTP5 (enzyme)

EC50, FIX chromogenic activity (BIOPHEN kit) (Factor X [1]): 1.64 µg/mL
Molecule: FIX-CTP (from UniProt P00740 47-461) (enzyme)

EC50, FIX chromogenic activity (BIOPHEN kit) (Factor X [1]): 0.382 µg/mL
EC50, FIX chromogenic activity (BIOPHEN kit) (Factor X [3]): 0.505 µg/mL
Molecule: FIX-CTP-CTP (enzyme)
